These results are taken from US8076300B2, “FGF2-binding peptides and uses thereof” (Tecnogen S.p.A., priority 2006, dated 2011).

The subject of one test is MAE cells. The test can be described thus: Cell proliferation assay, retrovirus infected MAE cells stimulated with FGF2. The test is classed as cell-based, murine. Particulars: retroviral overexpression in MAE cells, FGF2 0.55 nM, 48 h. The text has this:
The cDNAs encoding for human PTX3 and for the enhanced green fluorescent protein (EGFP) were obtained as described^17. The cDNAs encoding for the N-terminal fragment PTX3(1-178) (Nterm-PTX3) and the C-terminal fragment PTX3(179-381) fused to the leader sequence for secretion PTX3(1-17) (sCterm-PTX3) were generated from pLX-PTX3^17 by PCR and standard cloning techniques. All cDNAs were cloned in the pBABE retroviral vector thus generating pBABE-PTX3, pBABE-Nterm-PTX3, pBABE-sCterm-PTX3, and pBABE-EGFP that were used to transfect the EcoPack2-293 packaging cells in the presence of Lipofectamin 17. Transduced cells were selected with puromycin (1 μg/ml, Sigma) for 2 weeks. Clones with a viral titer higher than […] were used for further experimentation. Confluent cultures of MAE cells were then incubated for 24 hours with the conditioned medium from pBABE-PTX3, pBABE-Nterm-PTX3, PBABE-sCterm-PTX3, or pBABE-EGFP packaging cells in the presence of polybrene (8 μg/ml, Sigma). Infected cell populations were selected for 7 days with puromycin. […] To assess the levels of transgene protein expression and release by infected cells, cell cultures were grown under serum-free conditions for 2 days. […]
Cell proliferation assay on endothelial cells was performed as described^22. […] After 24 or 48 h, respectively, cells were trypsinized and counted in a Burker chamber.

The target of another test is T1, FGF2/PTX3 interaction (Homo sapiens, UniProt P09038+P26022).
T1 construct: biotinylated PTX3 (bPTX3, 22 nM) in the absence or in the presence of a 10 fold-molar excess of full length PTX3; made in house; host or cells: FGF2: E. coli; PTX3: Chinese hamster ovary cells
The test can be described thus: Solid phase binding assay, biotinylated PTX3 (bPTX3) binding to immobilized FGF2 with competitors. Particulars: bPTX3 22 nM, competitor 10 fold-molar excess (220 nM). Here is the method: ELISA microplates were incubated for 16 hours at 4° C. with 100 μl/well of 100 mM NaHCO3, pH 9.6 (coating buffer) containing FGF2 (270 nM). Then, wells were overcoated for 2 hours at room temperature with 5% dry milk in coating buffer. […] Then, 100 μl/well of the chromogen substrate 2,29-azinobis(3-ethylbenzthiazolinesulfonic acid) were added. Absorbance values were read at 405 nm in an automatic ELISA reader. In some experiments, 100-μl aliquots of PBS containing biotin-labeled PTX3 (bPTX3) (22 nM) were incubated for 30 minutes at 37° C. onto FGF2-coated wells with or without competitors. Then, wells were washed, and the amount of bound bPTX3 was evaluated as described^17. Alternatively, synthetic PTX3 peptides were immobilized on ELISA microplate wells (200 μg/well) as described above. Then, FGF2 (80 nM) was added and FGF2 bound to immobilized peptides was assessed by 1 hour incubation at 37° C. with a rabbit polyclonal anti-FGF2 antibody (1:7000) followed by immunocomplex detection as described above.

Test [1] deals with T2, FGF2 (Homo sapiens, UniProt P09038). The test can be described thus: BIAcore binding assay, FGF2 binding to PTX3 immobilized to a sensorchip. On the set-up: made in house; host or cells: FGF2: E. coli; PTX3: Chinese hamster ovary cells. The method, then: A BIAcore X apparatus (BIAcore Inc, Piscataway, N.J.) was used. Surface plasmon resonance was exploited to measure changes in refractive index caused by the ability of FGF2 to bind to PTX3 immobilized to a BIAcore sensorchip. To this purpose, PTX3 (2.2 μM) was allowed to react with a flow cell of a CM4 sensorchip that was previously activated with 50 μl of a mixture of 0.2 M N-ethyl-N′-(3-dimethylaminopropyl)-carbodiimide hydrochloride and 0.05 M N-hydroxysuccinimide. These experimental conditions allowed the immobilization of 5,000 resonance units (RUs), corresponding to approximately 0.1 pmoles of PTX3. Similar results were obtained for immobilization of gelatin, here used as a negative control and for blank subtraction. Increasing concentrations of FGF2 with or without synthetic PTX3 peptides were then injected in dilution buffer (PBS plus 0.005% surfactant P20, 5.0 μg/mL CaCl2 and MgCl2) over the PTX3 surface for 4 minutes (to allow their association with immobilized PTX3) and then washed until dissociation was observed.
Target sequence in this assay (P09038 134-288): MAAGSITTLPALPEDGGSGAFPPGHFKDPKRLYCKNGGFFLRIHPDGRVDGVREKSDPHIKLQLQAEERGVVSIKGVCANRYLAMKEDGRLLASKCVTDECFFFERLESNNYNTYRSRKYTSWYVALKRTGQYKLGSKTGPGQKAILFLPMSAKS
(Surface plasmon resonance follows binding to a sensor surface in real time, without labels.)

Test [2] has as its target T2, FGF2. Description: Solid phase binding assay, FGF2 binding to immobilized synthetic PTX3 peptides. Set-up: made in house; host or cells: E. coli. Particulars: peptides 200 μg/well, FGF2 80 nM. Here is the method: (§1) ELISA microplates were incubated for 16 hours at 4° C. with 100 μl/well of 100 mM NaHCO3, pH 9.6 (coating buffer) containing FGF2 (270 nM). Then, wells were overcoated for 2 hours at room temperature with 5% dry milk in coating buffer. […] Then, wells were sequentially incubated for 1 hour at 37° C. with a rabbit polyclonal anti-PTX3 antibody (1:2000 dilution) that recognizes both PTX3 fragments with similar efficiency in Western blot and ELISA, an anti-rabbit biotinylated antibody (1:2000), and 100 μl of streptavidin-horseredish peroxidase (1:5000, Amersham) for 1 hour at room temperature. Then, 100 μl/well of the chromogen substrate 2,29-azinobis(3-ethylbenzthiazolinesulfonic acid) were added. Absorbance values were read at 405 nm in an automatic ELISA reader. In some experiments, 100-μl aliquots of PBS containing biotin-labeled PTX3 (bPTX3) (22 nM) were incubated for 30 minutes at 37° C. onto FGF2-coated wells with or without competitors. Then, wells were washed, and the amount of bound bPTX3 was evaluated as described^17. Alternatively, synthetic PTX3 peptides were immobilized on ELISA microplate wells (200 μg/well) as described above. Then, FGF2 (80 nM) was added and FGF2 bound to immobilized peptides was assessed by 1 hour incubation at 37° C. with a rabbit polyclonal anti-FGF2 antibody (1:7000) followed by immunocomplex detection as described above.
Target sequence in this assay (P09038 134-288): as above

Another test deals with GM7373 cells. Description: Cell proliferation assay, endothelial GM7373 cells. Particulars: FGF2 0.55 nM. Type of test: cell-based, bovine. The method, then: Cell proliferation assay on endothelial cells was performed as described^22. Briefly, GM7373 or MAE cells were seeded in 96-well dishes at 75,000 cells/cm^2 or 25,000 cells/cm^2, respectively. After 16 h, cells were incubated in fresh medium containing 0.4% FCS plus FGF2 (0.55 nM) in the absence or in the presence of different antagonists. After 24 or 48 h, respectively, cells were trypsinized and counted in a Burker chamber.

The target of test [3] is T2, FGF2. The test can be described thus: Solid phase binding assay, PTX3 proteins on FGF2-coated wells. Particulars: proteins at 44 nM, 30 minutes at 37° C. On the set-up: made in house; host or cells: E. coli. Here is the method:
as §1
Target sequence in this assay (P09038 134-288): as above

In test [4] the target is T2, FGF2. Particulars: cited from earlier work.
Target sequence in this assay (P09038 143-288): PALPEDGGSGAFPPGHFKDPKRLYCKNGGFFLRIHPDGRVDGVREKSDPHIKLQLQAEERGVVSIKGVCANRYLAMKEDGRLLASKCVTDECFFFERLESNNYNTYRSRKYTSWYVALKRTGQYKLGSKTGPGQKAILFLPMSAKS

T1 sequence (P09038 134-288): as the sequence (P09038 134-288) above
T1 sequence (P26022 18-381): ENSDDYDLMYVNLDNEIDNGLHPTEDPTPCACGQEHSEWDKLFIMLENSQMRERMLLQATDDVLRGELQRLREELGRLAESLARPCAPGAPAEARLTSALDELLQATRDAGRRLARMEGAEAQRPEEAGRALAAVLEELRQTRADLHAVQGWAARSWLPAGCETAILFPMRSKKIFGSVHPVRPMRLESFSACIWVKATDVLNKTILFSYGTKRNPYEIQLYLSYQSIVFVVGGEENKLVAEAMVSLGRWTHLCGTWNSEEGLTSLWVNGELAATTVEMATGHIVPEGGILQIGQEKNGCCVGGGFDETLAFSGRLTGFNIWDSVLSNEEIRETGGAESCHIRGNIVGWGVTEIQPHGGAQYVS

In the case of “PTX3: Human recombinant PTX3 (swiss-prot P26022) expressed in Chinese hamster ovary cells; long-pentraxin”, the “capacity of infected cells to proliferate in response to exogenous FGF2” value with MAE cells is listed as “significant decrease”. In addition, the figures for the “prevention of bPTX3 binding to immobilized FGF2” value with FGF2/PTX3 interaction and with FGF2/PTX3 interaction (listed as full length PTX3) were “prevents the capacity of bPTX3 to bind immobilized FGF2” and “prevented the binding”, respectively. For the same substance, in the test with FGF2 [1] (FGF2 0.8 μM over immobilized PTX3), the “FGF2 bound at the end of the injection phase” value is given as 350-400 RU. The “kinetic dissociation constant (koff) of FGF2/PTX3 interaction” value with FGF2 [1] (FGF2 0.1 to 1.1 μM over immobilized PTX3) was 6e-05 s⁻¹. Besides, in the test with FGF2 [2], the “binding of free FGF2 to immobilized peptide or PTX3” value is reported as “binds”. Moreover, the “inhibition of FGF2 mitogenic activity by conditioned medium of infected MAE cells” value with GM7373 cells (24 h) is “significant inhibition”. Further, in the test on GM7373 cells (peptides 66 μM, PTX3 220 nM), the “inhibition of mitogenic activity exerted by FGF2” value is reported as “inhibit”. In the test with FGF2 [3], the “binding to FGF2 immobilized to non-tissue culture plastic” value is “showed the capacity to bind FGF2”.

With “SAP: classical short-pentraxin serum amyloid P component”, in the test with FGF2 [4], the FGF2 binding entry is given as “inefficient FGF2 binders”.

“CRP: classical short-pentraxin C-reactive protein”: the FGF2 binding result with FGF2 [4] is “inefficient FGF2 binders”.
